Publication PMC9972942, “E6-Encoded by Cancer-Causing Human Papillomavirus Interacts with Aurora Kinase A To Promote HPV-Mediated Carcinogenesis” (Journal of Virology, 2023)

T1: GST-tagged HPV16 E7 (human papillomavirus type 16, UniProt P03129 1-98)
T1 construct: E7 oncoprotein of human papillomavirus type 16; also called GST-16 E7; HPVE7; source: E. coli, purified GST fusion protein
T1 sequence: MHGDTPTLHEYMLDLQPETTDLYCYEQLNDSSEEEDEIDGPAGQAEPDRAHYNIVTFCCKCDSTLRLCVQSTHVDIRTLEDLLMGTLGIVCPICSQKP

T2: GST-tagged HPV11 E6 (human papillomavirus type 11, UniProt P04019 1-150)
T2 construct: E6 protein of human papillomavirus type 11 (low-risk type); construct pGEX2T:HPV-11 E6; also called GST-11E6; lr-HPV11E6; source: E. coli, IPTG-induced, purified on glutathione-conjugated agarose
T2 sequence: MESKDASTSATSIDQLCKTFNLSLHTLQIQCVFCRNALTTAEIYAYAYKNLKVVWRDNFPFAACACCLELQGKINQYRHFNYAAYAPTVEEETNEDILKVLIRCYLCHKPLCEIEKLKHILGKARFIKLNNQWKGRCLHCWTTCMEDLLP

T3: GST-tagged HPV58 E6 (human papillomavirus type 58, UniProt P26555 1-149)
T3 construct: E6 oncoprotein of human papillomavirus type 58; construct pGEX2T:HPV-58 E6; also called GST-58E6; source: E. coli, IPTG-induced, purified on glutathione-conjugated agarose
T3 sequence: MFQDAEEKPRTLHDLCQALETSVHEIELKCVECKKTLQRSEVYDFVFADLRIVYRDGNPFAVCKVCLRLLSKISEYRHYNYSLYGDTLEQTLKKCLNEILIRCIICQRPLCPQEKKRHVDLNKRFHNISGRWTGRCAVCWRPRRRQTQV


Columns and labels:
[1] = molecular target: GST-tagged HPV16 E6 with its PDZ binding motif deleted (human papillomavirus type 16); experiment: pull-down; purified GST fusion proteins on glutathione-conjugated agarose incubated with equal amounts of in vitro-translated HA-AurA, 1 h at room temperature; washed 3 times with PBS containing 0.1% Tween 20; bound AurA detected by Western blotting with an HA-specific antibody; bands quantified with ImageJ relative to GST-16E6 (n = 3)
[2] = molecular target: GST-tagged HPV16 E6 with its PDZ binding motif deleted (human papillomavirus type 16)
[3] = molecular target: T4, GST-tagged HPV16 E6 T140A (human papillomavirus type 16, UniProt P03126 1-158, T140A); experiment: cell-based or functional assay
[4] = molecular target: T5, GST-tagged HPV16 E6 S150A (human papillomavirus type 16, UniProt P03126 1-158, S150A); experiment: cell-based or functional assay
GST-tagged HPV16 E6 S89A [5] = molecular target: T6, GST-tagged HPV16 E6 S89A (human papillomavirus type 16, UniProt P03126 1-158, S89A); experiment: cell-based or functional assay
[6] = molecular target: T7, GST-tagged HPV16 E6 S145A (human papillomavirus type 16, UniProt P03126 1-158, S145A); experiment: cell-based or functional assay
[7] = molecular target: GST-tagged HPV16 E6 wild type (human papillomavirus type 16, UniProt P03126 1-158); experiment: cell-based or functional assay
GST-tagged HPV16 E7 = molecular target: T1, GST-tagged HPV16 E7; experiment: pull-down; purified GST fusion proteins on glutathione-conjugated agarose incubated with equal amounts of in vitro-translated HA-AurA, 1 h at room temperature; washed 3 times with PBS containing 0.1% Tween 20; bound AurA detected by Western blotting with an HA-specific antibody; bands quantified with ImageJ relative to GST-16E6 (n = 3); details: one partner purified
GST-tagged HPV11 E6 = molecular target: T2, GST-tagged HPV11 E6; experiment: as above; details: one partner purified
[8] = molecular target: T4, GST-tagged HPV16 E6 T140A; experiment: as above; details: one partner purified
[9] = molecular target: T5, GST-tagged HPV16 E6 S150A; experiment: as above; details: one partner purified
GST-tagged HPV16 E6 S89A [10] = molecular target: T6, GST-tagged HPV16 E6 S89A; experiment: as above; details: one partner purified
[11] = molecular target: T7, GST-tagged HPV16 E6 S145A; experiment: as above; details: one partner purified
GST-tagged HPV58 E6 = molecular target: T3, GST-tagged HPV58 E6; experiment: as above; details: one partner purified
GST-tagged HPV18 E6 = molecular target: T8, GST-tagged HPV18 E6 (human papillomavirus type 18, UniProt P06463 1-158); experiment: as above; details: one partner purified
T8 construct: E6 oncoprotein of human papillomavirus type 18; construct pGEX2T:HPV-18 E6; also called GST-18E6; source: E. coli, IPTG-induced, purified on glutathione-conjugated agarose

Molecule	AurA bound relative to GST-16E6 (%) [1] [%]	AurA kinase activity (ADP-Glo) of purified AurA in the presence of GST-E6 ΔPBM, relative to AurA with GST alone [2]	AurA kinase activity (ADP-Glo) of purified AurA in the presence of GST-E6 T140A, relative to AurA with GST alone [3]	AurA kinase activity (ADP-Glo) of purified AurA in the presence of GST-E6 S150A, relative to AurA with GST alone [4]	AurA kinase activity (ADP-Glo) of purified AurA in the presence of GST-E6 S89A, relative to AurA with GST alone (GST-tagged HPV16 E6 S89A [5])	AurA kinase activity (ADP-Glo) of purified AurA in the presence of GST-E6 S145A, relative to AurA with GST alone [6]	AurA kinase activity (ADP-Glo) of purified AurA in the presence of GST-E6, relative to AurA with GST alone [7]	AurA bound relative to GST-16E6 (%) (GST-tagged HPV16 E7)	AurA bound relative to GST-16E6 (%) (GST-tagged HPV11 E6)	AurA bound relative to GST-16E6 wild type (%) [8] [%]	AurA bound relative to GST-16E6 wild type (%) [9] [%]	AurA bound relative to GST-16E6 wild type (%) (GST-tagged HPV16 E6 S89A [10])	AurA bound relative to GST-16E6 wild type (%) [11] [%]	AurA bound relative to GST-16E6 (%) (GST-tagged HPV58 E6)	AurA bound relative to GST-16E6 (%) (GST-tagged HPV18 E6)
Aurora kinase A (HA-AurA, in vitro translated) (from UniProt O14965 1-403) (enzyme)	87	0.85	–	–	–	–	–	–	–	–	–	–	–	–	–
Aurora kinase A (HA-AurA, in vitro translated) (enzyme, UniProt O14965 1-403, looked up, Aurora kinase A (AurA); plasmid pcDNA3.1:HA-AurA; the functional rows are written on this molecule; source: in vitro translated (TNT Coupled Reticulocyte Lysate System, Promega)) MDRSKENCISGPVKATAPVGGPKRVLVTQQFPCQNPLPVNSGQAQRVLCPSNSSQRIPLQAQKLVSSHKPVQNQKQKQLQATSVPHPVSRPLNNTQKSKQPLPSAPENNPEEELASKQKNEESKKRQWALEDFEIGRPLGKGKFGNVYLAREKQSKFILALKVLFKAQLEKAGVEHQLRREVEIQSHLRHPNILRLYGYFHDATRVYLILEYAPLGTVYRELQKLSKFDEQRTATYITELANALSYCHSKRVIHRDIKPENLLLGSAGELKIADFGWSVHAPSSRRTTLCGTLDYLPPEMIEGRMHDEKVDLWSLGVLCYEFLVGKPPFEANTYQETYKRISRVEFTFPDFVTEGARDLISRLLKHNPSQRPMLREVLEHPWITANSSKPSNCQNKESASKQS	–	–	0.61	0.68	0.65	0.68	0.85	37.3	12	25.3	56	67.3	24	158	102
